The values that follow come from patent publication US20250215103A1 (Hoffmann-La Roche, published 2025).

Sequences and labels used below:
B1: control CrossMab 8014 (PD1-0103-0312/Nada) (bispecific antibody, human IgG1, kappa, L234A L235A)
heavy 1: EVQLVESGGGLVQPGGSLRLSCAASGFSIAGTAIHWVRQAPGKGLEWVASISPGGGSTAYADSVKGRFTISADTSKNTAYLQMNSLRAEDTAVYYCSRSGGSGASAMDYWGQGTLVTVSSASTKGPSVFPLAPSSKSTSGGTAALGCLVEDYFPEPVTVSWNSGALTSGVHTFPAVLQSSGLYSLSSVVTVPSSSLGTQTYICNVNHKPSNTKVDEKVEPKSCDKTHTCPPCPAPEAAGGPSVFLFPPKPKDTLMISRTPEVTCVVVDVSHEDPEVKFNWYVDGVEVHNAKTKPREEQYNSTYRVVSVLTVLHQDWLNGKEYKCKVSNKALGAPIEKTISKAKGQPREPQVCTLPPSRDELTKNQVSLSCAVKGFYPSDIAVEWESNGQPENNYKTTPPVLDSDGSFFLVSKLTVDKSRWQQGNVFSCSVMHEALHNHYTQKSLSLSP
light 1: DIQMTQSPSSLSASVGDRVTITCRASQDVGSGVAWYQQKPGKAPKLLIGSASGLYSGVPSRFSGSRSGTDFTLTISSLQPEDFATYYCQQSASGGSTFGQGTKVEIKRTVAAPSVFIFPPSDRKLKSGTASVVCLLNNFYPREAKVQWKVDNALQSGNSQESVTEQDSKDSTYSLSSTLTLSKADYEKHKVYACEVTHQGLSSPVTKSFNRGEC
heavy 2: not shown
light 2: EVQLLESGGGLVQPGGSLRLSCAASGFSFSSYTMSWVRQAPGKGLEWVATISGGGRDIYYPDSVKGRFTISRDNSKNTLYLQMNSLRAEDTAVYYCVLLTGRVYFALDSWGQGTLVTVSSASVAAPSVFIFPPSDEQLKSGTASVVCLLNNFYPREAKVQWKVDNALQSGNSQESVTEQDSKDSTYSLSSTLTLSKADYEKHKVYACEVTHQGLSSPVTKSFNRGEC
B2: control 2+1 CrossMab 8158 (PD1-0103-0312/Nada BBB-format) (bispecific antibody, human IgG1, kappa, L234A L235A)
light 1: B1 light 2
light 2: B1 light 1
heavy 1: DIVMTQSPDSLAVSLGERATINCKASESVDTSDNSFIHWYQQKPGQSPKLLIYRSSTLESGVPDRFSGSGSGTDFTLTISSLQAEDVAVYYCQQNYDVPWTFGQGTKVEIKSSASTKGPSVFPLAPSSKSTSGGTAALGCLVKDYFPEPVTVSWNSGALTSGVHTFPAVLQSSGLYSLSSVVTVPSSSLGTQTYICNVNHKPSNTKVDKKVEPKSCDKTHTCPPCPAPEAAGGPSVFLFPPKPKDTLMISRTPEVTCVVVDVSHEDPEVKFNWYVDGVEVHNAKTKPREEQYNSTYRVVSVLTVLHQDWLNGKEYKCKVSNKALGAPIEKTISKAKGQPREPQVCTLPPSRDELTKNQVSLSCAVKGFYPSDIAVEWESNGQPENNYKTTPPVLDSDGSFFLVSKLTVDKSRWQQGNVFSCSVMHEALHNHYTQKSLSLSPGKGGGGSGGGGSEVQLVESGGGLVQPGGSLRLSCAASGFSIAGTAIHWVRQAPGKGLEWVASISPGGGSTAYADSVKGRFTISADTSKNTAYLQMNSLRAEDTAVYYCSRSGGSGASAMDYWGQGTLVTVSSASTKGPSVFPLAPSSKSTSGGTAALGCLVEDYFPEPVTVSWNSGALTSGVHTFPAVLQSSGLYSLSSVVTVPSSSLGTQTYICNVNHKPSNTKVDEKVEPKSCD
heavy 2: not shown
B3: PD1-0103-0312 (antibody, V domains shown)
VH: EVQLLESGGGLVQPGGSLRLSCAASGFSFSSYTMSWVRQAPGKGLEWVATISGGGRDIYYPDSVKGRFTISRDNSKNTLYLQMNSLRAEDTAVYYCVLLTGRVYFALDSWGQGTLVTVSS
VL: DIVMTQSPDSLAVSLGERATINCKASESVDTSDNSFIHWYQQKPGQSPKLLIYRSSTLESGVPDRFSGSGSGTDFTLTISSLQAEDVAVYYCQQNYDVPWTFGQGTKVEIK

Chain of human PD1 on cells (Jurkat cells expressing human PD1; activated human T cells) (Q15116 25-288 limits assumed): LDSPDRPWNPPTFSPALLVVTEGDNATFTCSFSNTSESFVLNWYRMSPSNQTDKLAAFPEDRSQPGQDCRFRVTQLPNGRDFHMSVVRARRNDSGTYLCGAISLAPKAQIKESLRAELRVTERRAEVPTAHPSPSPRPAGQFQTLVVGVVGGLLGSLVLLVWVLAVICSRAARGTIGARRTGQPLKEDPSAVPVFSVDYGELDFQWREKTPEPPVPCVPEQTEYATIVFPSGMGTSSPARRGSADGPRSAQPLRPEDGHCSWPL

This assay has as its target human PD1 on cells (Jurkat cells expressing human PD1; activated human T cells) (human, UniProt Q15116 25-288). As to the kind of experiment: cell-based or functional assay.
For the molecule B1, the “EC50 (pM) of Granzyme B production, mMLR” value was 13100 pM.
On to B2, for which the “EC50 (pM) of Granzyme B production, mMLR” value was determined as 111 pM.
Consider B3, for which the “EC50 (pM) of Granzyme B production, mMLR” value was determined as 110 pM.
